Experimental data as given in patent publication US20170015742A1 (published 2017).
Positions count from the first letter of the chain named.

B1: BEW-9C2-D6 (antibody, IgG2b, V domains shown)
VH: QIQLVQSGPELKKPGESVKVSCKASGYTFTNYGIHWVKQAPGQGLQYVGWINTETGRPTYADDFKGRFVFFLETSASTAYLQINNLKNEDMATYFCARPLYYGYAHYFDYWGQGVMVTVSS
VL: DIQMTQSPASLSASLEEIVTITCQASQDIGNWLAWYQQKPGKSPQLLIYGATSLADGVPSRFSGSRSGTQYSLKISRLQVEDIGIYYCQQASSVTYTFGAGTKLELK
B2: BEW-9D2-E8 (antibody, IgG2a, V domains shown)
VH: QIQLVQSGPELKKPGESVKISCKASGYTFTNYGMYWVKLAPGQGLQYLGWINTETGKPTYADDFKGRFVFFLETSASTAYLQINNLRNEDMATYFCARPSDYYDGFWFAYWGQGTLVTVSS
VL: DTVLTQSPALTVSPGERVSISCRASEWVNSYMHWYQQNPGQQPKLLIYKASNLASGVPARFSGSGSGTDFTLTLDPVEADDTATYFCQQSWNDPLTFGSGTKLEIK
B3: BEW-9E7-B4 (antibody, IgG2b, V domains shown)
VH: QIQLVQSGPELKKPGESVKISCKASGYTFTNYGMYWVKQAPGQGLQYMGWIDTETGKPTYADDFKGRFVFFLETSASTAYLQINNLRNEDMATYFCARWGYTSDYYYGWFPDWGQGTLVTVST
VL: B2 VL with T11A, W27G, T73N, L74I, D75H, S90N, D93V
B4: BEW-9E3-B9 (antibody, IgG2a, V domains shown)
VH: B2 VH with L39Q, L48M, Y80F, R87K, A109P, T115A
VL: B2 VL with V3I, T11A, V18I, W27G, L74I
B5: BEW-1B4-C4 (antibody, IgG2b, V domains shown)
VH: QIQLVQSGPELKKPGESVKISCKASGYSFTNYGMYWVKQAPGQGLQYMGWIDTETGKPTYTDDFKGRFVFFLETSASTAYLQINNLKNEDMATYFCARWSGDTAGIRGPWFAYWGQGTLVTVSS
VL: DIRMTQSPASLSASLGETVNIECLASEDIYSDLAWYQQKPGKSPQLLIYNANDLQKGVPSRFSGSGSGTQYSLKINSLQSEDVATYFCQQYNYYPGTFGAGTKLELK
notes: Rat hybridoma monoclonal antibody
B6: BEW-9E10-E7 (antibody, IgG2a, V domains shown)
VH: B5 VH with V5L, S28T, K57R, T61A, A104T
VL: B5 VL with K42R, D53G, K56N, S63G, Y94F
B7: hBDI-5H1.1 (antibody, V domains shown)
VH: EVTLRESGPALVKPTQTLTLTCTFSGFSLSTFGMGVGWIRQPPGKALEWLANIWWDDDKYYNPSLKNRLTISKDTSKNQVVLTMTNMDPVDTATYYCARISTGISSYYVMDAWGQGTTVTVSS
VL: NFMLTQPHSVSESPGKTVTISCERSSGDIGDTYVSWYQQRPGSSPTTVIYGNDQRPSGVPDRFSGSIDSSSNSASLTISGLKTEDEADYYCQSYDSDIDIVFGGGTKLTVL
B8: hBDI-5H1.4 (antibody, V domains shown)
VH: B7 VH
VL: EFVLTQSPGTLSLSPGERATLSCERSSGDIGDTYVSWYQQKPGQAPRLVIYGNDQRPSGIPDRFSGSGSGTDFTLTISRLEPEDFAVYYCQSYDSDIDIVFGGGTKVEIK
B9: hBDI-5H1.17 (antibody, V domains shown)
VH: B7 VH with R5K, A46G, K77N, N78S, V80A, M84I
VL: B8 VL with T33S, G52A, N53D, S95I, D96N
B10: hBDI-5H1.3 (antibody, V domains shown)
VH: B7 VH
VL: B8 VL with F2I, V49L
B11: hBDI-5H1.9 (antibody, V domains shown)
VH: B7 VH with V80A, M84I
VL: DFVLTQSPDSLAVSLGERATINCERSSGDIGDTYVSWYQQKPGQPPKNVIYGNDQRPSGVPDRFSGSGSGNSATLTISSLQAEDVAVYFCQSYDSDIDIVFGGGTKVEIK
B12: hBDI-5H1.10 (antibody, V domains shown)
VH: B7 VH with V80A, M84I
VL: DFQLTQSPSSLSASVGDRVTITCERSSGDIGDTYVSWYQQKPGKAPKNVIYGNDQRPSGVPSRFSGSGSGNSATLTISSLQPEDFATYFCQSYDSDIDIVFGQGTKVEIK
B13: hBDI-5H1.8 (antibody, V domains shown)
VH: B7 VH with R5K, V80A, M84I
VL: B8 VL
B14: hBDI-5H1.13 (antibody, V domains shown)
VH: B7 VH with R5K, V80A, M84I
VL: B12 VL
B15: hBDI-5H1.16 (antibody, V domains shown)
VH: B7 VH with R5K, A46G, K77N, N78S, V80A, M84I
VL: B8 VL with A45P, L48N, I60V, Y89F
B16: hBDI-5H1.7 (antibody, V domains shown)
VH: B7 VH with R5K, V80A, M84I
VL: B8 VL with F2I, V49L
B17: hBDI-5H1.5 (antibody, V domains shown)
VH: B7 VH with R5K, V80A, M84I
VL: B7 VL
B18: hBDI-5H1.2 (antibody, V domains shown)
VH: B7 VH
VL: B7 VL with S44P, T47N, Y90F
B19: hBDI-5H1.6 (antibody, V domains shown)
VH: B7 VH with R5K, V80A, M84I
VL: B7 VL with S44P, T47N, Y90F
B20: hBFU-3E2.1 (antibody, V domains shown)
VH: EVQLVQSGAEVKKPGSSVKVSCKASGYTFTESYMYWVKQAPGQGLELIGRIDPEDGSTDYVEKFKNKATLTADKSTSTAYMELSSLRSEDTAVYFCARFGARSYFYPMDAWGQGTTVTVSS
VL: ETVLTQSPATLSLSPGERATLSCRASESVSTLMHWYQQKPGQQPRLLIYGASNLESGVPARFSGSGSGTDFTLTISSLEPEDFAVYFCQQSWNDPWTFGGGTKVEIK
B21: hBFU-3E2.3 (antibody, V domains shown)
VH: B20 VH
VL: ATQLTQSPSSLSASVGDRVTISCRASESVSTLMHWYQQKPGKQPRLLIYGASNLESGVPSRFSGSGSGTDFTLTISSLQPEDFATYFCQQSWNDPWTFGGGTKVEIK
B22: hBFU-3E2.2 (antibody, V domains shown)
VH: B20 VH with K38R, K67R, A68V, F95Y
VL: B20 VL
B23: hBFU-3E2.4 (antibody, V domains shown)
VH: B20 VH with K38R, K67R, A68V, F95Y
VL: B21 VL
B24: hBDI-5H1.11 (antibody, V domains shown)
VH: EVQLVESGGGLVQPGGSLRLSCAFSGFSLSTFGMGVGWIRQAPGKGLEWLANIWWDDDKYYNPSLKNRLTISKDTSKNQAYLQINSLRAEDTAVYYCARISTGISSYYVMDAWGQGTLVTVSS
VL: B11 VL
B25: hBDI-5H1.12 (antibody, V domains shown)
VH: B24 VH
VL: B12 VL

target: T1, Human VEGF-A 165 (human, UniProt P15692 207-395); assay: Biacore SPR (Example 1.1)
T1 construct: also called hVEGF165; huVEGF-A165
T1 sequence (P15692 other isoform, or with tags, fused parts or gaps limits assumed): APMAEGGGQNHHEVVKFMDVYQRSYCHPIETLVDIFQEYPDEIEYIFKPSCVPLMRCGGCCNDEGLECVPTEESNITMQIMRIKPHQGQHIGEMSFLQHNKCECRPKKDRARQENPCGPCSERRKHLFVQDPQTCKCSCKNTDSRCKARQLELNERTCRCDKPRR
Method: Unreacted moieties on the biosensor surface were blocked with ethanolamine. For kinetic analysis, rate equations derived from the 1:1 Langmuir binding model were fitted simultaneously to multiple antigen injections (using global fit analysis) with the use of Scrubber 2 (BioLogic Software), Biacore Biaevaluation 4.0.1 software or Biacore T100 Evaluation software. Purified antibodies or DVD-Ig molecules were diluted in running buffer for capture across goat anti-human Fc reaction surfaces. Antibodies or DVD-Ig molecules to be captured as a ligand (1 μg/ml) were injected over reaction matrices at a flow rate of 10 μl/minute. During the assay, all measurements were referenced against the capture surface alone (i.e., with no captured antibody or DVD-Ig molecule). […] The equilibrium dissociation constant KD (M) of the reaction between antibodies and the target antigen was then calculated from the kinetic rate constants by the following formula: KD=Koff/Kₒₙ. Binding was recorded as a function of time and kinetic rate constants were calculated. In this assay, on-rates as fast as 10⁶M⁻¹s⁻¹ and off-rates as slow as 10⁻⁶ s⁻¹ could be measured. […]

Binder	Kd	kon
B1	≤ 0.00018 nM	5.5e+06 M⁻¹ s⁻¹
B2	0.014 nM	7e+06 M⁻¹ s⁻¹
B3	0.0043 nM	5.9e+06 M⁻¹ s⁻¹
B4	0.014 nM	6.7e+06 M⁻¹ s⁻¹
B5	0.0074 nM	1.8e+07 M⁻¹ s⁻¹
B6	0.0031 nM	1.3e+07 M⁻¹ s⁻¹

target: recombinant human PDGF-BB (human, UniProt P01127 82-190); assay: cell-based or functional assay
Sequence (P01127 82-190 limits assumed): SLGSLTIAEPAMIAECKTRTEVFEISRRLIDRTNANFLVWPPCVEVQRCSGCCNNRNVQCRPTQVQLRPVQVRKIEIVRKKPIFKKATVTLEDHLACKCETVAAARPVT

Binder	hPDGF-BB IC50 (nM), hPDGF-BB-induced NIH-3T3 cell proliferation
B7	< 10 nM
B8	< 10 nM
B9	< 10 nM
B10	< 10 nM
B11	< 10 nM
B12	< 10 nM
B13	< 10 nM
B14	< 10 nM
B15	< 10 nM
B16	< 10 nM
B17	< 10 nM
B18	< 10 nM
B19	< 10 nM
B20	0.183 nM
B21	0.335 nM
B22	0.659 nM
B23	0.571 nM
B24	< 10 nM
B25	< 10 nM
